# Where a chain is given by its changes, count along the chain named. Names may count otherwise.
# B1: Streptomyces sp. strain TH1 L-proline-3-hydroxylase (cis-P3H, SEQ ID NO. 1) mutant R97M (Streptomyces sp.; R97M) (protein)
# chain: MRSHILGRIELDQERLGRDLEYLATVPTVEEEYDEFSNGFWKNIPLYNASGGSEDRLYRDLEGSPAQPTKHAEQVPYLNEIITTVYNGERLQMARTMNLKNAVVIPHRDFVELDRELDQYFRTHLMLEDSPLAFHSDDDTVIHMRAGEIWFLDAAAVHSAVNFAEFSRQSLCVDLAFDGAFDEKEAFADATVYAPNLSPDVRERKPFTKEREAGILALSGVIGRENFRDILFLLSKVHYTYDVHPGETFEWLVSVSKGAGDDKMVEKAERIRDFAIGARALGERFSLTTW
# B2: Streptomyces sp. strain TH1 L-proline-3-hydroxylase (cis-P3H), wild type (WT), SEQ ID NO. 1 (Streptomyces sp.) (protein)
# chain: B1 chain with M97R
# What was measured:
# [1] = target: T1, Streptomyces sp. strain TH1 L-proline-3-hydroxylase (cis-P3H, SEQ ID NO. 1) mutant R97M (Streptomyces sp., UniProt P96010, R97M); test: Kinetic parameters of L-proline-3-hydroxylase mutant R97M (Michaelis-Menten fit); type: biochemical
# T1 sequence (P96010 1-290 R97M): B1 chain
# Procedure: […]
# (§1) The reaction was terminated by boiling, and the sample after the termination of reaction was analyzed by high-performance liquid chromatography (HPLC). […]
# (§2) Kinetic parameters (Km and Vmax) were determined using a reaction mixture with a final volume of 250 μL. […]
# [2] = target: T2, Streptomyces sp. strain TH1 L-proline-3-hydroxylase (cis-P3H), wild type (WT), SEQ ID NO. 1 (Streptomyces sp., UniProt P96010); test: Kinetic parameters of wild-type L-proline-3-hydroxylase (Michaelis-Menten fit); type: biochemical; conditions: WT pure enzyme; L-pipecolic acid 0.30 to 25 mM, 2-OG 0.30 to 40 mM; pH 6.5, 17° C.; three measurements
# T2 sequence (P96010 1-290): B1 chain with M97R
# Procedure: […]
# as §1, §2
# [3] = substrate: O=C(O)CCC(=O)C(=O)O; test: purified protein, by the assay type; conditions: L-pipecolic acid 0.30 to 25 mM, 2-OG 0.30 to 40 mM, pH 6.5, 17° C., three measurements
# [4] = substrate: O=C(O)[C@@H]1CCCCN1; test: Kinetic parameters of L-proline-3-hydroxylase mutant R97M (Michaelis-Menten fit); type: biochemical, Streptomyces sp. strain TH1; conditions: other: R97M pure enzyme, L-pipecolic acid 0.30 to 25 mM, 2-OG 0.30 to 40 mM, pH 6.5, 17° C., three measurements
# Description: (§3) The present disclosure further provides a method for constructing the L-proline-3-hydroxylase mutant above, the method includes the following steps: • (1) according to sequence information of the L-proline-3-hydroxylase from Streptomyces sp. strain TH1 disclosed in the NCBI database, performing codon optimization based on codon preference rules of Escherichia coli to obtain an optimized gene of L-proline-3-hydroxylase; connecting the optimized gene of L-proline-3-hydroxylase into an expression vector pET28a to construct an L-proline-3-hydroxylase expression vector; • (2) using genes (involved in site-directed saturation mutagenesis) synthesized by GENCEFE Biotech to prepare an expression vector containing the L-proline-3-hydroxylase mutant; • (3) transforming the above vectors into BL21 engineering bacteria by chemical transformation to express each enzyme protein; culturing the strain in a test tube at 37° C. shaker overnight, transferring the same to an LB liquid culture medium containing 50 mg·L^−1 kanamycin at a 2% inoculation rate, culturing at 37° C. for 2-2.5 hours, and then adding IPTG with a concentration of 0.10 mM to adjust a temperature to 17° C. and culturing for 16 hours; • (4) centrifuging at 8000 r·min^−1 for 5 minutes and collecting bacterial pellets, disrupting cells through an ultrasonic disruption method, centrifuging in a refrigerated centrifuge at 12000 r·min^−1 for 30 minutes to collect supernatant, directly using the supernatant for crude enzyme reaction to explore changes in molar yield under crude enzyme conditions; or purifying the supernatant with a nickel column, and enzymatic properties such as enzyme activity and kinetic parameters of the pure L-proline-3-hydroxylase can be determined. Specifically, the enzyme activity is detected using an Fmoc-Cl pre-column derivatization method, and analyzed by high-performance liquid chromatography (HPLC). The kinetic parameters (Km and Vmax) are measured in a standard enzyme activity assay system, with three separate measurements. Data are fitted to a Michaelis-Menten model using GraphPad Prism, and a protein concentration is kept at 0.50 mg·mL-1 during the measurements.
# (§4) Specifically, the reaction under crude enzyme conditions was performed for 12 hours, the reaction under pure enzyme conditions was performed for 15 minutes, and a final protein concentration for the reaction under pure enzyme conditions was 0.5 mg·mL^−1.
# as §1, §2
# [5] = substrate: O=C(O)[C@@H]1CCCCN1; test: Kinetic parameters of wild-type L-proline-3-hydroxylase (Michaelis-Menten fit); type: biochemical, Streptomyces sp. strain TH1; conditions: other: WT pure enzyme, L-pipecolic acid 0.30 to 25 mM, 2-OG 0.30 to 40 mM, pH 6.5, 17° C., three measurements
# Description: as §3, §4, §1, §2
molecule,measurement,setting,value
"O=C(O)[C@@H]1CCCCN1 [L-Pip, L-pipecolic acid]",kcat/Km,"[1]; R97M pure enzyme, L-pipecolic acid 0.30 to 25 mM, 2-OG 0.30 to 40 mM, pH 6.5, 17° C., three measurements",34.8 M⁻¹ s⁻¹
same,catalytic efficiency kcat/Km of R97M relative to WT,[1]; ratio R97M / WT,1.83 times
same,kcat/Km,[2],19 M⁻¹ s⁻¹
B1,Km,[3]; other: R97M pure enzyme,1.46 ± 0.01 mM
same,Vmax,[3]; other: R97M pure enzyme,139 µM/min
same,kcat,[3]; other: R97M pure enzyme,0.151 s⁻¹
same,kcat/Km,[3]; other: R97M pure enzyme,104 M⁻¹ s⁻¹
same,Km,[4],6.83 ± 0.32 mM
same,Vmax,[4],212 µM/min
same,kcat,[4],0.23 ± 0.00367 s⁻¹
same,kcat/Km,[4],34.8 ± 1 M⁻¹ s⁻¹
B2,Km,[5],10.27 ± 0.40 mM
same,Vmax,[5],201 µM/min
same,kcat,[5],0.2038 ± 0.002 s⁻¹
same,kcat/Km,[5],19 ± 0.5 M⁻¹ s⁻¹
same,Km,[3]; other: WT pure enzyme,0.76 ± 0.02 mM
same,Vmax,[3]; other: WT pure enzyme,101 µM/min
same,kcat,[3]; other: WT pure enzyme,0.102 s⁻¹
same,kcat/Km,[3]; other: WT pure enzyme,134 M⁻¹ s⁻¹
